Assay results from article doi:10.1101/2021.06.17.448874.
Several values for one entry are separate records, joined by “and”; a condition that tells them apart may be missing. Equal entries are not always repeated.

How the values were obtained:
[1] = target: microtubules polymerised from porcine brain tubulin, taxol-stabilised (porcine) (UniProt P02550); assay: co-sedimentation
[2] = target: subtilisin-digested microtubules (lacking E-hooks) (porcine) (UniProt P02550); assay: co-sedimentation

shift to pellet (%) [1] | shift to pellet (%) [2] | Substance
56.1% and 41.6% |  | MBP-MESP-1 (meiotic spindle 1) (natural protein)
52.7% and 50.8% | 26.7% | KLP-18 C-stalk (C-terminal half of the KLP-18 stalk) (domain or fragment)
